This is an account of results in patent publication US20170202915A1 (TUFTS UNIVERSITY, published 2017).

The target in one experiment is T1, recombinant galectin-3 (UniProt P17931 2-250).
T1 construct: also called Gal-3
Briefly: galectin-agarose pulldown from LEC lysates, anti-PDPN western blot (FIG. 7A). A general note: A western blot detects proteins with antibodies after separation by electrophoresis.

The target of the next experiment is T2, VEGFR-1 (UniProt P17948 27-1338, limits assumed).
T2 construct: whole, on cells
T2 sequence (P17948 27-1338 limits assumed): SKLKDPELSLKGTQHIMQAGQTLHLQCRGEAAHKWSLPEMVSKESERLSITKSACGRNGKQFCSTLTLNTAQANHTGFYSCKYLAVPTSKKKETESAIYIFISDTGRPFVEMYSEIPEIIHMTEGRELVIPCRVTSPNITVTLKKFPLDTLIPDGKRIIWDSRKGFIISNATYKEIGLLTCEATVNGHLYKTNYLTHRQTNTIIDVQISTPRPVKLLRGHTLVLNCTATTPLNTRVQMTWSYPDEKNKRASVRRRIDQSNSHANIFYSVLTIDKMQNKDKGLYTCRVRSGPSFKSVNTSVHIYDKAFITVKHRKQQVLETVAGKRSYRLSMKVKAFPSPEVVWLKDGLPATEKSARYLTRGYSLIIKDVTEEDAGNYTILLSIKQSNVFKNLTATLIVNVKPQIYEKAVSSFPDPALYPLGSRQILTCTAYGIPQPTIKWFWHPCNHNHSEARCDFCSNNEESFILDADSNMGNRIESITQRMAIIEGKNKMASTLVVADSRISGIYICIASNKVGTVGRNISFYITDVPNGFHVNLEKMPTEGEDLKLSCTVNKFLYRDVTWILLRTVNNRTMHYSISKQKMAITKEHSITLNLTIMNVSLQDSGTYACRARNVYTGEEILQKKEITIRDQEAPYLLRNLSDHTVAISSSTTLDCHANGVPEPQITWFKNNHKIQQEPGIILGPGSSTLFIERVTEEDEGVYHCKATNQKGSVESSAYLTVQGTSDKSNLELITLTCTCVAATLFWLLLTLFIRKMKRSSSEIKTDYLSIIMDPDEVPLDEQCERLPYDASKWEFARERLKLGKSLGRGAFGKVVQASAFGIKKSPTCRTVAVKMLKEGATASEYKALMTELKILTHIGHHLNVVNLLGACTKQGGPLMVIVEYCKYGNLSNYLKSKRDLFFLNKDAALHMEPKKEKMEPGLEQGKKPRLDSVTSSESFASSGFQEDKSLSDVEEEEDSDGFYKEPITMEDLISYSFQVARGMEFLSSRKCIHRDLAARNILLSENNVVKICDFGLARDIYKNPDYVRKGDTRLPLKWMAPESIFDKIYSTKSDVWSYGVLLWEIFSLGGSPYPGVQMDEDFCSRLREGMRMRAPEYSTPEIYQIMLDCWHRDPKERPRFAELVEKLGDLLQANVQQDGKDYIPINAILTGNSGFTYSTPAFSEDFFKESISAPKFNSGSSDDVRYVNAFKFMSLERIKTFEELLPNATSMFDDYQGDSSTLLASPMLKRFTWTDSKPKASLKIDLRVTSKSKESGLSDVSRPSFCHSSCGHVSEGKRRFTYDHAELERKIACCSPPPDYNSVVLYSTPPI
Briefly: galectin-agarose pulldown from primary LECs, western blot (FIG. 21A).

T1 sequence (P17931 2-250 limits assumed): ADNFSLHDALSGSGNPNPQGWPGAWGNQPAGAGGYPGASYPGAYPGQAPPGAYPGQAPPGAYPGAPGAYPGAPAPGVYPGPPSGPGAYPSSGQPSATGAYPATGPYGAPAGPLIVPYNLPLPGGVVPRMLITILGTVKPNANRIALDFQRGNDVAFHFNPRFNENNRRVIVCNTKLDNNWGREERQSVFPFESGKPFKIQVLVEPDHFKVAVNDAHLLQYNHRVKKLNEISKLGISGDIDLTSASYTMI
Protocol for VEGFR-1: Primary LECs were incubated with agarose beads (control), and galectin-conjugated agarose beads at 4° C. overnight. Unbound proteins were removed and the bound proteins were eluted with 20 μL of 2× Laemmli sample buffer and analyzed and compared to control input by western blotting. […] LEC lysates incubated with unconjugated beads served as a negative control.
Protocol for recombinant galectin-3: Bound proteins were examined and were compared to total cell lysates (input) by western blot using anti-PDPN. […] Primary LECs were transfected with control (mock) or two siRNA that targeted different regions of PDPN. Knockdown efficiency was assessed by western blot using anti-PDPN and anti-β-actin antibodies. […] Primary LECs were transfected with control or PDPN siRNA. […] Data are plotted as mean±SEM and analyzed using Student's t test (FIG. 7C and FIG. 7F). *P<0.05, ***P<0.001 vs corresponding control.
Bound proteins were examined with total cell lysates (input) by western blot using an anti-PDPN antibody.

B1: podoplanin (receptor, human, UniProt Q86YL7 23-162, looked up)
chain: ASTGQPEDDTETTGLEGGVAMPGAEDDVVTPGTSEDRYKSGLTTLVATSVNSVTGIRIEDLPTSESTVHAQEQSPSATASNVATSHSTEKVDGDTQTTVEKDGLSTVTLVGIIVGVLLAIGFIGAIIVVVMRKMSGRYSP
modifications: O-glycosylated with alpha2,3-sialyl glycans
notes: whole, on cells; Endogenous protein from LEC lysates in the pulldowns and co-immunoprecipitation; also called PDPN
B1: in the experiment with recombinant galectin-3, the binding result is “no binding”.

B2: recombinant full-length galectin-8 (other, UniProt O00214 1-317, looked up)
chain: MMLSLNNLQNIIYNPVIPFVGTIPDQLDPGTLIVIRGHVPSDADRFQVDLQNGSSMKPRADVAFHFNPRFKRAGCIVCNTLINEKWGREEITYDTPFKREKSFEIVIMVLKDKFQVAVNGKHTLLYGHRIGPEKIDTLGIYGKVNIHSIGFSFSSDLQSTQASSLELTEISRENVPKSGTPQLRLPFAARLNTPMGPGRTVVVKGEVNANAKSFNVDLLAGKSKDIALHLNPRLNIKAFVRNSFLQESWGEEERNITSFPFSPGMYFEMIIYCDVREFKVAVNGVHSLEYKHRFKELSSIDTLEINGDIHLLEVRSW
notes: mature; Tandem-repeat lectin with an N-CRD and a C-CRD; also called Gal-8; exogenous Gal-8
With B2, the binding result in the experiment with VEGFR-1 is recorded as “no binding”.
